Data on 1 molecule can be found in PMC8486322 (Cell, 2019).

For the assay, the target named is eRF3 fused with maltose binding protein (MBP-eRF3) ( (the printed NM_002094.3 is …, UniProt P15170-3 1-637)). Kind of assay: pull-down.

B1: SFL fused with glutathione S-transferase (GST-SFL) (natural protein)
chain: not shown
Turning to B1, the binding result is listed as “binds”.
